± gives the uncertainty stated by the source.
Test: self-splicing fitness, log relative to wild type (ln ratio); higher = more splicing; Tetrahymena group I intron in knt gene, E. coli kanamycin selection, DiMSum; sequences stand for … in CUCUCU…GGAGGGAAAAGUUAUCAGGCAUGCACCUGGUAGCUAGUCUUUAAACCAAUAGAUUGCAUCGGUUUAAAAGGCAAGACCGUCAAAUUGCGGGAAAGGGGUCAACAGCCGUUCAGUACCAAGUCUCAGGGGAAACUUUGAGAUGGCCUUGCAAAGGGUAUGGUAAUAAGCUGACGGACAUGGUCCUAACCACGCAGCCAAGUCCUAAGUCAACAGAUCUUCUGUUGAUAUGGAUGCAGUUCACAGACUAAAUGUCGGUCGGGGAAGAUGUAUUCUUCUCAUAAGAUAUAGUCGGACCUCUCCUUAAUGGGAGCUAGCGGAUGAAGUGAUGCAACACUGGAGCCGCUGGGAACUAAUUUGUAUGCGAAAGUAUAUUGAUUAGUUUUGGAGUACUCGUGGUCG
Method in brief: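 Library with all eight P1ex-region intron nucleotides randomised, intron inside the knt kanamycin-resistance gene on pET-22b(+), in E. coli BL21(DE3). Cells grew overnight at 37°C or 30°C on LB agar with or without 25 μg/mL kanamycin (plus 100 μg/mL carbenicillin, 50 μM IPTG, 0.2% rhamnose), in six replicate transformations. Pooled colonies were amplicon-sequenced on Illumina HiSeq 2500. DiMSum fitness is the error-weighted combination of wild-type-normalised replicate fold changes, kanamycin versus none.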

| Sequence | self-splicing fitness (ln) (30 °C) | self-splicing fitness (ln) (37 °C) |
| --- | --- | --- |
| UCUUAGCAAUAUUACGGCAG | -3.36 ± 0.26 | -2.23 ± 0.3 |
| UCUUAGCAAUAUUACGGCAU | -3.42 ± 0.33 | -1.75 ± 0.23 |
| UCUUAGCAAUAUUACGGCCG | -2.11 ± 0.37 | -0.349 ± 0.33 |
| UCUUAGCAAUAUUACGGGAA | – | -0.457 ± 0.3 |
| UCUUAGCAAUAUUACGGUAG | – | -2.11 ± 0.41 |
| UCUUAGCAAUAUUACGUCCA | -1.92 ± 0.13 | -1.93 ± 0.18 |
| UGAAAGCAAUAUUACGAACG | 0.0634 ± 0.17 | 0.684 ± 0.2 |
| UGAAAGCAAUAUUACGACGA | -0.661 ± 0.12 | -0.101 ± 0.12 |
| UGAAAGCAAUAUUACGAGUA | -1.45 ± 0.1 | -0.821 ± 0.092 |
| UGAAAGCAAUAUUACGAUAG | -1.07 ± 0.098 | -0.612 ± 0.098 |
| UGAAAGCAAUAUUACGCAAU | -2.16 ± 0.24 | 0.457 ± 0.23 |
| UGAAAGCAAUAUUACGCAGU | -3.25 ± 0.22 | -1.3 ± 0.13 |
| UGAAAGCAAUAUUACGCCGG | -0.876 ± 0.11 | -0.346 ± 0.15 |
| UGAAAGCAAUAUUACGCGUC | -2.59 ± 0.31 | -2.56 ± 0.34 |
| UGAAAGCAAUAUUACGGCUC | -1.4 ± 0.13 | -0.842 ± 0.12 |
| UGAAAGCAAUAUUACGGGGC | -3.89 ± 0.23 | -2.73 ± 0.19 |
| UGAAAGCAAUAUUACGGUAC | -3.27 ± 0.32 | -2.07 ± 0.24 |
| UGAAAGCAAUAUUACGGUUU | -1.87 ± 0.1 | -1.16 ± 0.12 |
| UGAAAGCAAUAUUACGUACU | -0.121 ± 0.089 | -0.476 ± 0.091 |
| UGAAAGCAAUAUUACGUCUC | -3.36 ± 0.24 | -2.18 ± 0.23 |
| UGAAAGCAAUAUUACGUGCA | 0.0492 ± 0.078 | 0.75 ± 0.098 |
| UGAAAGCAAUAUUACGUGUG | -1.67 ± 0.077 | -0.52 ± 0.081 |
| UGAAAGCAAUAUUACGUUAU | -3.73 ± 0.19 | -1.76 ± 0.11 |
| UGAAAGCAAUAUUACGUUGG | -2.36 ± 0.091 | -1.66 ± 0.11 |
| UGAAAGCAAUAUUACGUUUG | -2.94 ± 0.13 | -0.682 ± 0.11 |

| Sequence | self-splicing fitness (ln) (30 °C) | self-splicing fitness (ln) (37 °C) |
| --- | --- | --- |
| UGACAGCAAUAUUACGAACG | 0.00619 ± 0.095 | 0.256 ± 0.1 |
| UGACAGCAAUAUUACGACAA | -0.197 ± 0.087 | 0.15 ± 0.1 |
| UGACAGCAAUAUUACGACCA | -0.143 ± 0.1 | 0.216 ± 0.15 |
| UGACAGCAAUAUUACGACUG | -0.341 ± 0.06 | 0.371 ± 0.091 |
| UGACAGCAAUAUUACGAGUG | -1.09 ± 0.054 | -0.833 ± 0.077 |
| UGACAGCAAUAUUACGCAAG | -3.51 ± 0.27 | -2.73 ± 0.21 |
| UGACAGCAAUAUUACGCCGG | -0.618 ± 0.12 | -0.791 ± 0.15 |
| UGACAGCAAUAUUACGCCUC | -3.41 ± 0.26 | -3.24 ± 0.47 |
| UGACAGCAAUAUUACGCCUG | -0.292 ± 0.1 | 0.595 ± 0.14 |
| UGACAGCAAUAUUACGCUCU | -0.946 ± 0.083 | -0.389 ± 0.093 |
| UGACAGCAAUAUUACGGAGG | -4.41 ± 0.29 | -3.93 ± 0.21 |
| UGACAGCAAUAUUACGGAUC | -4.78 ± 0.32 | -2.21 ± 0.16 |
| UGACAGCAAUAUUACGGCCU | -0.801 ± 0.068 | 0.131 ± 0.078 |
| UGACAGCAAUAUUACGGCUA | -0.14 ± 0.079 | 0.942 ± 0.11 |
| UGACAGCAAUAUUACGGCUC | -1.37 ± 0.16 | -0.546 ± 0.17 |
| UGACAGCAAUAUUACGGUAU | -3.58 ± 0.2 | -2.45 ± 0.21 |
| UGACAGCAAUAUUACGGUUG | -2.49 ± 0.13 | -1.56 ± 0.15 |
| UGACAGCAAUAUUACGUAUG | -1.56 ± 0.058 | -0.368 ± 0.073 |
| UGACAGCAAUAUUACGUGCG | -1.12 ± 0.086 | -0.119 ± 0.097 |
| UGACAGCAAUAUUACGUUUA | -0.565 ± 0.061 | -0.556 ± 0.07 |
| UGAGAGCAAUAUUACGAAAA | – | 0.153 ± 0.41 |
| UGAGAGCAAUAUUACGACAA | -0.796 ± 0.32 | -1.99 ± 0.43 |
| UGAGAGCAAUAUUACGAGGC | -2.98 ± 0.22 | -2.17 ± 0.33 |
| UGAGAGCAAUAUUACGAGGG | -3.68 ± 0.35 | -1.09 ± 0.36 |
| UGAGAGCAAUAUUACGCAAA | – | -0.61 ± 0.36 |

| Sequence | self-splicing fitness (ln) (30 °C) | self-splicing fitness (ln) (37 °C) |
| --- | --- | --- |
| UGAGAGCAAUAUUACGCAAG | -3.21 ± 0.32 | -2.74 ± 0.44 |
| UGAGAGCAAUAUUACGCCGU | -3.58 ± 0.47 | – |
| UGAGAGCAAUAUUACGCUCG | – | -1.32 ± 0.45 |
| UGAGAGCAAUAUUACGCUGC | -2.67 ± 0.42 | – |
| UGAGAGCAAUAUUACGGCUU | -4.13 ± 0.42 | – |
| UGAGAGCAAUAUUACGGGUA | -2.66 ± 0.37 | – |
| UGAGAGCAAUAUUACGUAUA | -3.03 ± 0.42 | -1.66 ± 0.35 |
| UGAGAGCAAUAUUACGUCGA | -2.82 ± 0.39 | -3.1 ± 0.47 |
| UGAGAGCAAUAUUACGUGAU | -3.97 ± 0.46 | -2.72 ± 0.38 |
| UGAGAGCAAUAUUACGUUAU | -2.88 ± 0.23 | -2.89 ± 0.43 |
| UGAUAGCAAUAUUACGAAGC | -3.24 ± 0.32 | – |
| UGAUAGCAAUAUUACGCAUA | -2.13 ± 0.19 | -0.977 ± 0.16 |
| UGAUAGCAAUAUUACGCAUC | – | -1.53 ± 0.49 |
| UGAUAGCAAUAUUACGCCGU | -4.2 ± 0.43 | -2.01 ± 0.2 |
| UGAUAGCAAUAUUACGCGUC | -3.08 ± 0.31 | – |
| UGAUAGCAAUAUUACGGAUA | -3.57 ± 0.25 | -1.6 ± 0.19 |
| UGAUAGCAAUAUUACGGGGC | -3.5 ± 0.29 | – |
| UGAUAGCAAUAUUACGGUAG | -2.38 ± 0.2 | -1.12 ± 0.17 |
| UGAUAGCAAUAUUACGGUUC | – | -1.46 ± 0.27 |
| UGAUAGCAAUAUUACGUAGA | -2.3 ± 0.15 | -0.984 ± 0.17 |
| UGAUAGCAAUAUUACGUGAG | -0.705 ± 0.05 | -0.543 ± 0.087 |
| UGAUAGCAAUAUUACGUGCG | -0.579 ± 0.1 | -0.921 ± 0.087 |
| UGAUAGCAAUAUUACGUGUU | -3.87 ± 0.19 | -2.6 ± 0.2 |
| UGAUAGCAAUAUUACGUUCA | -0.43 ± 0.087 | 0.075 ± 0.093 |
| UGAUAGCAAUAUUACGUUGC | -2.16 ± 0.17 | -2.32 ± 0.28 |

| Sequence | self-splicing fitness (ln) (30 °C) | self-splicing fitness (ln) (37 °C) |
| --- | --- | --- |
| UGAUAGCAAUAUUACGUUUG | -1.26 ± 0.073 | 0.0201 ± 0.099 |
| UGCAAGCAAUAUUACGACGC | -1.44 ± 0.4 | -0.865 ± 0.24 |
| UGCAAGCAAUAUUACGACUA | 0.0901 ± 0.093 | 0.525 ± 0.11 |
| UGCAAGCAAUAUUACGAGUA | -0.888 ± 0.083 | 0.181 ± 0.083 |
| UGCAAGCAAUAUUACGAUGA | -0.161 ± 0.093 | 0.0415 ± 0.097 |
| UGCAAGCAAUAUUACGCACC | -1.89 ± 0.24 | -1.25 ± 0.32 |
| UGCAAGCAAUAUUACGCAUA | -2.59 ± 0.2 | -2.33 ± 0.2 |
| UGCAAGCAAUAUUACGCCCC | -0.548 ± 0.19 | -0.556 ± 0.32 |
| UGCAAGCAAUAUUACGCGGG | -3.73 ± 0.27 | -2.42 ± 0.22 |
| UGCAAGCAAUAUUACGCGUA | -1.45 ± 0.18 | -1.57 ± 0.17 |
| UGCAAGCAAUAUUACGCUUC | -3.15 ± 0.24 | -3.33 ± 0.32 |
| UGCAAGCAAUAUUACGGAAU | -2.88 ± 0.19 | -2.45 ± 0.2 |
| UGCAAGCAAUAUUACGGAUC | -3.09 ± 0.17 | -2.38 ± 0.16 |
| UGCAAGCAAUAUUACGGGCA | -1.4 ± 0.11 | -0.815 ± 0.096 |
| UGCAAGCAAUAUUACGGGCG | -1.41 ± 0.087 | -0.699 ± 0.1 |
| UGCAAGCAAUAUUACGGGUC | -3.11 ± 0.24 | -2.11 ± 0.21 |
| UGCAAGCAAUAUUACGGUUC | -2.93 ± 0.19 | -1.92 ± 0.17 |
| UGCAAGCAAUAUUACGUAGC | -3.54 ± 0.37 | -2.48 ± 0.41 |
| UGCAAGCAAUAUUACGUAUG | -3.05 ± 0.16 | -0.321 ± 0.1 |
| UGCAAGCAAUAUUACGUCAA | -2.14 ± 0.098 | -0.795 ± 0.073 |
| UGCAAGCAAUAUUACGUCUA | -0.304 ± 0.047 | 0.371 ± 0.062 |
| UGCAAGCAAUAUUACGUUAG | -2.79 ± 0.14 | -2.02 ± 0.15 |
| UGCCAGCAAUAUUACGACAC | -2.55 ± 0.35 | -2.68 ± 0.38 |
| UGCCAGCAAUAUUACGAGAU | -3.75 ± 0.26 | -2.32 ± 0.21 |

Source: the supplement of paper PMC7877785
